Numbered stars: 1 amine (or outer) side, 2 acyl side, 3 side chain; on linkers, the order of the positions; unused ones are H or OH. Bridge positions count the residues as written; N and C are the ends. Ends that are not written are not given here. TBMB = c1c(C[*:1])cc(C[*:3])cc1C[*:2]

The assay concerns the target T1, biotinylated human plasma Kallikrein (human, UniProt P03952 20-638, biotinylated).
T1 construct: also called Biotinylated hPK
Briefly: phage binding assay, signal:background. The procedure: Library transformant colonies, or selection output colonies, were picked and grown as individual cultures in 2TY broth containing selective antibiotic. The picked colonies were DNA-sequenced using a QIAgen PyroMark Q96 DNA sequencer to reveal the amino-acid substitution present in each clone, and were assayed for human plasma Kallikrein binding as follows. The phage-containing supernatant was harvested from the culture and phage were cyclised with tris bromomethyl benzene(TBMB) based on the methods of Heinis et al (Nature Chemical Biology vol. 5 pp 502-507 (2009)). The purified phage from this process were assayed for binding to biotinylated human plasma Kallikrein using a homogeneous plate-based binding assay; assay read-out measured on a BMG Labtech Pherastar FS plate reader. The quantitative binding data from duplicate assay samples was averaged (mean) and expressed as signal:background. […] The assay data was correlated with the peptide sequences.
Selections against human plasma Kallikrein were performed with this library in order to study the non-WPAR (SEQ ID NO: 18) determinants of Kallikrein binding, and to isolate the optimal WPAR (SEQ ID NO: 18)-containing peptide sequence.

T1 sequence (P03952 20-638 limits assumed): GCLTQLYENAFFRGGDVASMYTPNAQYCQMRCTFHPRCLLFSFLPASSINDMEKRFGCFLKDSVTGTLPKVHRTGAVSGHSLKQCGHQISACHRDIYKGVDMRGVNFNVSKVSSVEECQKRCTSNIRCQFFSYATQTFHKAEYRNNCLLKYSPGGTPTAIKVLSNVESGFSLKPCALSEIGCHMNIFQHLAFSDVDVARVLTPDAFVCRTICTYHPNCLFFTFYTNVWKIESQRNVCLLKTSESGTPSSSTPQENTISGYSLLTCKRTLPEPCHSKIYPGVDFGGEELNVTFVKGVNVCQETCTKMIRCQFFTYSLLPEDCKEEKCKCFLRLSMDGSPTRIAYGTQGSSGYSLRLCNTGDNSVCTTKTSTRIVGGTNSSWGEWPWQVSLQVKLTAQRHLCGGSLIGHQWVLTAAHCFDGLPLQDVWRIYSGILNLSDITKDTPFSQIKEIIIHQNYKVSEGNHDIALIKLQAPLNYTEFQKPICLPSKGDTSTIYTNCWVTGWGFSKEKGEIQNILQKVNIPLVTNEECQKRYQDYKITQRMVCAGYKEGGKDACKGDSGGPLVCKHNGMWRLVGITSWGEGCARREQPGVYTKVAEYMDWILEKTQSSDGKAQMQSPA

B1: SEQ ID NO 115 (peptide)
peptide: CNWPARCTHQDLC
modifications: linker 1-7-13 via TBMB
In turn, B1 had a Binding assay signal of 116.

B2: SEQ ID NO 132 (peptide)
peptide: CQWPARCTHSDLC
modifications: linker 1-7-13 via TBMB (inferred)
B2 showed a Binding assay signal of 74.

B3: SEQ ID NO 145 (peptide)
peptide: CAWPARCMHDDLC
modifications: linker 1-7-13 via TBMB (inferred)
In the case of B3, the Binding assay signal worked out at 69.

B4: SEQ ID NO 129 (peptide)
peptide: CMWPARCMHQDLC
modifications: linker 1-7-13 via TBMB (inferred)
Regarding B4, the Binding assay signal worked out at 79.

B5: SEQ ID NO 137 (peptide)
peptide: CSWPARCTHSHLC
modifications: linker 1-7-13 via TBMB (inferred)
Molecule B5 displayed a Binding assay signal of 72.

B6: SEQ ID NO 143 (peptide)
peptide: CPWPARCTHQNLC
modifications: linker 1-7-13 via TBMB (inferred)
Molecule B6 returned a Binding assay signal of 69.

B7: SEQ ID NO 146 (peptide)
peptide: CSWPARCLHTELC
modifications: linker 1-7-13 via TBMB (inferred)
On to B7, for which the Binding assay signal is 68.

B8: SEQ ID NO 139 (peptide)
peptide: CTWPARCTHADLC
modifications: linker 1-7-13 via TBMB (inferred)
Consider B8, for which the Binding assay signal came to 71.

B9: SEQ ID NO 118 (peptide)
peptide: CSWPARCTHADLC
modifications: linker 1-7-13 via TBMB
Turning to B9, the Binding assay signal was 100.

B10: SEQ ID NO 117 (peptide)
peptide: CPWPARCTHQDLC
modifications: linker 1-7-13 via TBMB
B10 had a Binding assay signal of 107.

B11: SEQ ID NO 156 (peptide)
peptide: CEWPARCLHTDLC
modifications: linker 1-7-13 via TBMB (inferred)
In turn, B11 registered a Binding assay signal of 60.

B12: SEQ ID NO 120 (peptide)
peptide: CAWPARCTHTDLC
modifications: linker 1-7-13 via TBMB (inferred)
B12 gave a Binding assay signal of 92.

B13: SEQ ID NO 142 (peptide)
peptide: CAWPARCTHYDLC
modifications: linker 1-7-13 via TBMB (inferred)
With B13, the Binding assay signal was 70.

B14: SEQ ID NO 124 (peptide)
peptide: CHWPARCTHQELC
modifications: linker 1-7-13 via TBMB (inferred)
Molecule B14 had a Binding assay signal of 85.

B15: SEQ ID NO 125 (peptide)
peptide: CAWPARCLHDDLC
modifications: linker 1-7-13 via TBMB (inferred)
With B15, the Binding assay signal came out at 84.

B16: SEQ ID NO 163 (peptide)
peptide: CPWPARCLHTDLC
modifications: linker 1-7-13 via TBMB
B16 registered a Binding assay signal of 58.

B17: SEQ ID NO 128 (peptide)
peptide: CAWPARCTHTDFC
modifications: linker 1-7-13 via TBMB (inferred)
The molecule B17 showed a Binding assay signal of 80.

B18: SEQ ID NO 133 (peptide)
peptide: CLWPARCTHADLC
modifications: linker 1-7-13 via TBMB (inferred)
Consider B18, for which the Binding assay signal came to 74.

B19: SEQ ID NO 119 (peptide)
peptide: CSWPARCTHDDLC
modifications: linker 1-7-13 via TBMB (inferred)
As to B19, the Binding assay signal came out at 93.

B20: SEQ ID NO 148 (peptide)
peptide: CTWPARCTHTDMC
modifications: linker 1-7-13 via TBMB (inferred)
Take B20: the Binding assay signal was 67.

B21: SEQ ID NO 161 (peptide)
peptide: CSWPARCTHSDLC
modifications: linker 1-7-13 via TBMB
On to B21, for which the Binding assay signal turned out to be 59.

B22: SEQ ID NO 159 (peptide)
peptide: CRWPARCTHTDLC
modifications: linker 1-7-13 via TBMB
The molecule B22 gave a Binding assay signal of 59.

B23: SEQ ID NO 149 (peptide)
peptide: CAWPARCTHTHLC
modifications: linker 1-7-13 via TBMB (inferred)
For B23, the Binding assay signal worked out at 66.

B24: SEQ ID NO 130 (peptide)
peptide: CAWPARCTHADLC
modifications: linker 1-7-13 via TBMB (inferred)
In the case of B24, the Binding assay signal is 79.

B25: SEQ ID NO 123 (peptide)
peptide: CTWPARCTHTDLC
modifications: linker 1-7-13 via TBMB (inferred)
Regarding B25, the Binding assay signal was determined as 88.

B26: SEQ ID NO 121 (peptide)
peptide: CQWPARCLHTDLC
modifications: linker 1-7-13 via TBMB (inferred)
In turn, B26 yielded a Binding assay signal of 91.

B27: SEQ ID NO 116 (peptide)
peptide: CHWPARCTHQDLC
modifications: linker 1-7-13 via TBMB
Regarding B27, the Binding assay signal amounted to 110.

B28: SEQ ID NO 140 (peptide)
peptide: CHWPARCMHQDLC
modifications: linker 1-7-13 via TBMB (inferred)
Consider B28, for which the Binding assay signal stood at 71.

B29: SEQ ID NO 134 (peptide)
peptide: CRWPARCTHQDLC
modifications: linker 1-7-13 via TBMB (inferred)
The molecule B29 showed a Binding assay signal of 73.

B30: SEQ ID NO 138 (peptide)
peptide: CVWPARCTHQDLC
modifications: linker 1-7-13 via TBMB (inferred)
In the case of B30, the Binding assay signal was found to be 71.

B31: SEQ ID NO 141 (peptide)
peptide: CPWPARCTHTDLC
modifications: linker 1-7-13 via TBMB (inferred)
B31 had a Binding assay signal of 70.

B32: SEQ ID NO 144 (peptide)
peptide: CSWPARCTHTELC
modifications: linker 1-7-13 via TBMB (inferred)
For B32, the Binding assay signal turned out to be 69.

B33: SEQ ID NO 162 (peptide)
peptide: CSWPARCLHDDLC
modifications: linker 1-7-13 via TBMB
B33: the Binding assay signal stood at 59.

B34: SEQ ID NO 127 (peptide)
peptide: CAWPARCTHVDLC
modifications: linker 1-7-13 via TBMB (inferred)
Molecule B34 returned a Binding assay signal of 82.

B35: SEQ ID NO 147 (peptide)
peptide: CSWPARCIHQDLC
modifications: linker 1-7-13 via TBMB (inferred)
For the molecule B35, the Binding assay signal is 68.

B36: SEQ ID NO 122 (peptide)
peptide: CLWPARCTHQDLC
modifications: linker 1-7-13 via TBMB (inferred)
For the molecule B36, the Binding assay signal was found to be 90.

B37: SEQ ID NO 126 (peptide)
peptide: CSWPARCLHTDLC
modifications: linker 1-7-13 via TBMB (inferred)
B37 showed a Binding assay signal of 83.

The record behind these values is US10800813 (Bicycle, dated 2020).
